The results in this text go back to article PMC11626796.

Experiment [1] deals with Versican treated with chondroitinase ABC (core protein) (bovine) (UniProt P81282). In words: ELISA; solid-phase binding assay: proteoglycan or versican domain coated on a 96-well plate (0.25 ug/ml; 0.05-1 ug/ml in Fig. 2A) at 4 C overnight, blocked with 3% BSA in TTBS or casein; rat tail type I collagen 0.1-5 ug/ml in 1% BSA/PBS overnight at RT; detected with biotin-conjugated anti-collagen I antibody, streptavidin-HRP and TMB; Kd from Scatchard plot.

The target in experiment [2] is Native versican isolated from bovine liver (bovine) (UniProt P81282). Described as above.

Rat tail type I telo-collagen, P02454 152-1207; P02466 86-1125 (complex; GAG side chains removed with chondroitinase ABC), sequence (P02454 152-1207): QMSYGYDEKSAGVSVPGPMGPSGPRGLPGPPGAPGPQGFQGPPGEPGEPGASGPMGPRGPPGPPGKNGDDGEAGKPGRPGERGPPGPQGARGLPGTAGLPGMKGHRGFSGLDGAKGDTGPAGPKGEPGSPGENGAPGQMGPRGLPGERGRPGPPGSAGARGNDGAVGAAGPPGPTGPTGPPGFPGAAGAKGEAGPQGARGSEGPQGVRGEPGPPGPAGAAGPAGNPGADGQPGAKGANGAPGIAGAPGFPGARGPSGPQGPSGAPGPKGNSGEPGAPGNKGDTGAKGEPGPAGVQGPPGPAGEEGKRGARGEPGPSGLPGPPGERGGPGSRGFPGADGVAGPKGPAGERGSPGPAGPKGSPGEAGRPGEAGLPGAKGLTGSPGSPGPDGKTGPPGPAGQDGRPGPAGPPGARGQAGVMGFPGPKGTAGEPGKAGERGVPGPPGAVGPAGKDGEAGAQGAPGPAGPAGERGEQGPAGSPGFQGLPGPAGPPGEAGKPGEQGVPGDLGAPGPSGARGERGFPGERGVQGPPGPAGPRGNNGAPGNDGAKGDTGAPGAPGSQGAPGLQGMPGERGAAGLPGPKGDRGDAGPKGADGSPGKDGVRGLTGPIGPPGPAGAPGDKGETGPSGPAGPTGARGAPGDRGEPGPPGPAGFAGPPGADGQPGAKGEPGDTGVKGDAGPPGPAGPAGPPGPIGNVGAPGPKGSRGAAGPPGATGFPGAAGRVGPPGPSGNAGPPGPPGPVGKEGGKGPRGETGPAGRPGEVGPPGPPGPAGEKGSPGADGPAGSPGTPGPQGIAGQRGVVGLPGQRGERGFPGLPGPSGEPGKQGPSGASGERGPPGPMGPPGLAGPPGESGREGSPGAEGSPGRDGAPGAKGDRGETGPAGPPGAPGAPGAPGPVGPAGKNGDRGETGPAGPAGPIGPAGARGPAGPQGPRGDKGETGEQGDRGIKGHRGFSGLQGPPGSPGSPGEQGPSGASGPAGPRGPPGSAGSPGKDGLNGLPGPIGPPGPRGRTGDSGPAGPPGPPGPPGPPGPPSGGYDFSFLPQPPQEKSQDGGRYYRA
Rat tail type I telo-collagen, P02454 152-1207; P02466 86-1125 (complex; GAG side chains removed with chondroitinase ABC), sequence (P02466 86-1125): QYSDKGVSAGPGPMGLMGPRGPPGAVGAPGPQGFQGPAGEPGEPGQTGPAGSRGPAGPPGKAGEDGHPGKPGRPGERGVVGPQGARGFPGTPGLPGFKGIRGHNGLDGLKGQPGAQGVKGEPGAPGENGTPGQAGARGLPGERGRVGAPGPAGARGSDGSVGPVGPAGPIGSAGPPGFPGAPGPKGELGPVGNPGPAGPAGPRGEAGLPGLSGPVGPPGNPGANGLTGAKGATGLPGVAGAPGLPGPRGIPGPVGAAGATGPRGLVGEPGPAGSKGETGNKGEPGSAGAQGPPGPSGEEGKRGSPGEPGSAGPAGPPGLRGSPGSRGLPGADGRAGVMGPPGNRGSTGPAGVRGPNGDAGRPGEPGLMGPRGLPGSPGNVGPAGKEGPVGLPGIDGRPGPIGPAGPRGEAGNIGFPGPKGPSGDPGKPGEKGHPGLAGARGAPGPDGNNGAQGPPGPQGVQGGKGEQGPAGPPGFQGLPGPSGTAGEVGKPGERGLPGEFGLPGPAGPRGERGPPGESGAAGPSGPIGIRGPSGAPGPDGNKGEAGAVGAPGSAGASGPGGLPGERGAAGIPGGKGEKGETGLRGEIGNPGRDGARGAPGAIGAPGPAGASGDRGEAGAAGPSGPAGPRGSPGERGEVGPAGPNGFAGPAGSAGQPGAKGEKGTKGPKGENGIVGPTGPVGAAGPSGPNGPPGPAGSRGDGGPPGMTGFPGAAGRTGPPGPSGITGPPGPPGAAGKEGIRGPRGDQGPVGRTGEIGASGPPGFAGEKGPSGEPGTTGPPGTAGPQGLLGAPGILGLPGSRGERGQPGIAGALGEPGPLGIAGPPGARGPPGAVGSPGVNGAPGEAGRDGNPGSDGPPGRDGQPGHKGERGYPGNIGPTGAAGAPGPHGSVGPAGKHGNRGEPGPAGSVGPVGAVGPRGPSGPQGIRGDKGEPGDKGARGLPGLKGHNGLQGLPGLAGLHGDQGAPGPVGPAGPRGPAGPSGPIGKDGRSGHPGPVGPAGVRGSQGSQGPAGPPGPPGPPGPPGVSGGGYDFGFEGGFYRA
Rat tail type I telo-collagen, P02454 152-1207; P02466 86-1125 (complex; chondroitin sulfate GAG side chains), sequence (P02454 152-1207): as the sequence (P02454 152-1207) above
Rat tail type I telo-collagen, P02454 152-1207; P02466 86-1125 (complex; chondroitin sulfate GAG side chains), sequence (P02466 86-1125): as the sequence (P02466 86-1125) above

“Rat tail type I telo-collagen, P02454 152-1207; P02466 86-1125 (complex; GAG side chains removed with chondroitinase ABC)” had a dissociation constant Kd in experiment [1] of 2.2 nM. Consider “Rat tail type I telo-collagen, P02454 152-1207; P02466 86-1125 (complex; chondroitin sulfate GAG side chains)”, for which the Kd in experiment [2] stood at 1.3 nM.
